Data: the supplement of paper PMC11865577

Columns and labels:
Experiment in all cases: pull-down binding Z-score (relative to library population); higher = stronger binding
Settings in all cases: RNA library: Library-2
[1] = test system: TO-3-N3 (biotin conjugate)
Summary of the method: (§1)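 Streptavidin beads bearing 100 pmol of a biotin-conjugated small molecule were incubated for 60 min at 25 °C with 1 μg of heat-folded, Cy5- or Cy3-end-labelled RNA library in phosphate/NaCl/KCl buffer. Hot SDS eluted the RNA that stayed bound after three washes, and this RNA was hybridised for 20 h at 55.5 °C to a DNA barcode microarray. Binding was expressed as a Z-score against the library mean and standard deviation, after subtraction of a beads-only signal and trimmed averaging of barcoded replicate probes.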

TO-N3 (biotin conjugate) = test system: TO-N3 (biotin conjugate)
Summary of the method: as §1

[2] = test system: TO-3-N3-2 (biotin conjugate)
Summary of the method: as §1

[3] = test system: TO-N3-2 (biotin conjugate)
Summary of the method: as §1

| Sequence | pull-down binding Z-score [1] | pull-down binding Z-score (TO-N3 (biotin conjugate)) | pull-down binding Z-score [2] | pull-down binding Z-score [3] |
| --- | --- | --- | --- | --- |
| CUGAAAAAUGGGAAUCUGGAGUAAAAGACUGUGUUGUAUUACACAGUUACUUCACUUCAGACUAUUACCAG | -0.376 | -0.329 | -0.182 | -0.48 |
| UGGGGAUCACAACUCA [IAV_invivo_PB1_2_Motif_11+IAV_invivo_PB1_2_Motif_11] | 0.479 | 0.158 | -0.0635 | -0.317 |
| UAUAAUAUGAGAGUUAUA | -0.11 | -0.233 | -0.355 | -0.882 |
| UCUGACAGUCCAUGUGAGUCUCAUGGAAAACAAGUAGUGUCAGA [SHAPE_invivo_SARS-CoV-2_Motif_364] | -0.582 | -0.868 | -0.0689 | -0.73 |
| CUGGGCCAUAAGGACCAG [IAV_invivo_NP_5_Motif_20+IAV_invivo_NP_5_Motif_20] | -0.0792 | -0.418 | -0.477 | -0.786 |
| CAAGGCUAUUGAUGGUGGUGUCACUCGUGACAUAGCAUCUACAGAUACUUG [SHAPE_invivo_SARS-CoV-2_Motif_176] | -0.614 | -0.424 | -0.243 | 0.281 |
| GCCUUGAAGCCCCUUUUCUCUAUCUUUAUGCUUUAGUCUACUUCUUGCAGAGUAUAAACUUUGUAAGAAUAAUAAUGAGGC | 0.275 | 0.232 | 0.362 | 0.166 |
| GCGCUGCCAGAAACUGGCUAAGCGC [bulge-UA] | -0.669 | -0.911 | -0.353 | -0.61 |
| CCUACUAAAAAGG | 0.907 | 0.766 | 0.2 | -0.0122 |
| CUCGUCUAUCUUCUGCAGGCUGCUUACGGUUUCGUCCGUGUUGCAGCCGAUCAUCAGCACAUCUAGGUUUCGUCCGGGUGUGACCGAAAGGUAAGAUGGAGAG | -0.0693 | -0.000928 | -0.556 | 0.408 |
| GCUUCCACUGAGAAGU [DMSMaPseq_invitro_SARS-CoV-2_Motif_384] | -0.836 | -1.1 | -0.576 | -1.03 |
| GGCGAUUUUGUUAAAGCCACUUGCGAAUUUUGUGGCACUGAGAAUUUGACUAAAGAAGGUGCCACUACUUGUGGUUACUUACCCCAAAAUGCU | 0.452 | 0.66 | 0.278 | 0.59 |
| CAAGGACCUGCCUAAAGAAAUCACUGUUGCUACAUCACGAACGCUUUCUUAUUACAAAUUGGGAGCUUCGCAGCGUGUAGCAGGUGACUCAGGUUUUG [DMSMaPseq_invitro_SARS-CoV-2_Motif_486] | -0.688 | -0.158 | -0.309 | 0.921 |
| UGUCAUUACUUCAGGUGAUGGCA | 0.0463 | -0.14 | -0.0892 | -1.31 |
| GCGCCGCCAGAAACUGGCCGCGC [mismatch-CC] | -0.796 | -1.08 | -0.533 | -0.608 |
| CACUUCUUUCUUUGAGAGAAGUG | -0.323 | -0.669 | -0.228 | -1.42 |
| ACCUCGUCUAUGCUUUAAGGCAUUUUGAUGAAGGU | 0.13 | -0.152 | -0.357 | -0.876 |

| Sequence | pull-down binding Z-score [1] | pull-down binding Z-score (TO-N3 (biotin conjugate)) | pull-down binding Z-score [2] | pull-down binding Z-score [3] |
| --- | --- | --- | --- | --- |
| GGUUCGUGUCUUUAGCUAUAGAUGCUUACC | 0.877 | 0.913 | 0.206 | -0.066 |
| GCCAGCACAUGGUCCAGCCAAAAACAUGGAGUAUGAUGCUGUUGC [IAV_invivo_PB1_2_Motif_34+IAV_invivo_PB1_2_Motif_34] | -0.602 | -0.304 | -0.346 | 1.43 |
| CCCAGUGCGGGG [IAV_invivo_NP_5_Motif_5+IAV_invivo_NP_5_Motif_5] | -0.794 | -1.12 | -0.664 | -0.984 |
| GUUGCGUCACCAAAUGAAUGCAAC | -0.989 | -1.3 | -0.49 | -1.2 |
| GGGGACGACCU [IAV_invivo_NA_6_Motif_17+IAV_invivo_NA_6_Motif_17] | 0.479 | 0.481 | -0.417 | -0.0675 |
| AACUGUGAUGUUGUAAUAGGAAUUGUCAACAACACAGUU | -0.296 | -0.618 | -0.0554 | -1 |
| GCCCUUAUAGGGC [IAV_invivo_NA_6_Motif_5+IAV_invivo_NA_6_Motif_5] | 0.164 | -0.247 | -0.38 | -1.22 |
| CCGAAAUUAUGUCUUUACUGGUUAUCGUGUAACUAAAAACAGUAAAGUACAAAUAGG | -0.303 | -0.399 | -0.0158 | -0.428 |
| GGGUCGGUUGCUCACAAGUCCUGCCUGCCUGCCU [IAV_invivo_NP_5_Motif_15+IAV_invivo_NP_5_Motif_15] | 0.283 | 0.865 | 0.184 | 1.7 |
| GUGCCCAAAAUACGUCAGGAGUGC [IAV_invivo_HA_4_Motif_13+IAV_invivo_HA_4_Motif_13] | -0.325 | 0.0361 | 0.129 | 0.402 |
| GACGACUACUAGCGUGCCUUUGUAAGCACAAGCUGAUGAGUACGAACUUAUGUACUCAUUCGUU [SHAPE_invivo_SARS-CoV-2_Multi_65_ComplexLevel_1] | 0.114 | 0.417 | 0.0759 | 0.764 |
| GCUUUCUUUGGC [IAV_invivo_NS1_NEP_8_Motif_2+IAV_invivo_NS1_NEP_8_Motif_2] | -0.0308 | -0.43 | -0.505 | -1.09 |
| CUGUUAAUGUAGCAUUUGAGCUUUGGGCUAAGCGCAACAUUAAACCAG | 0.0322 | 0.38 | -0.268 | 0.335 |
| GGUCUAUAUGCC [SHAPE_invivo_SARS-CoV-2_Motif_218] | 0.153 | 0.0896 | -0.349 | -0.475 |
| UCUUGCCGAAUACCAUAAUGAAUCUGGCUUGA [SHAPE_invivo_SARS-CoV-2_Motif_27] | -0.617 | -0.631 | -0.354 | 0.0939 |
| CUGGGGGCAAUCAGUUUCUGG [IAV_invivo_HA_4_Motif_20+IAV_invivo_HA_4_Motif_20] | 1.05 | 0.946 | -0.0228 | -0.107 |
